Experimental data reported in patent publication US20040175758.

Key:
[1] = biological target: Bovine recombinant PrP (Prionics), P10279
[2] = biological target: T1, Q4, synthetic peptide Ac-EKTAGKPILF-OH
T1 chain: EKTAGKPILF

Bovine recombinant PrP (Prionics), P10279, sequence (P10279 25-242): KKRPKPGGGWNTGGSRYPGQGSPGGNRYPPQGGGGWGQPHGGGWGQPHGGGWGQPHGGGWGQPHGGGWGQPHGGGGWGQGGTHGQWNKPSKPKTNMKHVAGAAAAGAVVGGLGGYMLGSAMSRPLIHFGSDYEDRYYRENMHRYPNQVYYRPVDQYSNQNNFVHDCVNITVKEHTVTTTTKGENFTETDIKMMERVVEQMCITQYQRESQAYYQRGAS

B1: Recombinant FLAG-tagged human GPBP (expressed in yeast, FLAG-affinity purified) (protein)
chain: MSDNQSWNSSGSEEDPETESGPPVERCGVLSKWTNYIHGWQDRWVVLKNNALSYYKSEDETEYGCRGSICLSKAVITPHDFDECRFDISVNDSVWYLRAQDPDHRQQWIDAIEQHKTESGYGSESSLRRHGSMVSLVSGASGYSATSTSSFKKGHSLREKLAEMETFRDILCRQVDTLQKYFDACADAVSKDELQRDKVVEDDEDDFPTTRSDGDFLHSTNGNKEKLFPHVTPKGINGIDFKGEAITFKATTAGILATLSHCIELMVKREDSWQKRLDKETEKKRRTEEAYKNAMTELKKKSHFGGPDYEEGPNSLINEEEFFDAVEAALDRQDKIEEQSQSEKVRLHWPTSLPSGDAFSSVGTHRFVQKPYSRSSSMSSIDLVSASDDVHRFSSQVEEMVQNHMTYSLQDVGGDANWQLVVEEGEMKVYRREVEENGIVLDPLKATHAVKGVTGHEVCNYFWNVDVRNDWETTIENFHVVETLADNAIIIYQTHKRVWPASQRDVLYLSVIRKIPALTENDPETWIVCNFSVDHDSAPLNNRCVRAKINVAMICQTLVSPPEGNQEISRDNILCKITYVANVNPGGWAPASVLRAVAKREYPKFLKRFTSYVQEKTAGKPILF
[1]
  in vitro phosphorylation with [γ^32P]-ATP, autoradiography: transferred phosphates to PrP
[2]
  GPBP autophosphorylation in vitro: inhibited GPBP autophosphorylation in a more limited manner
